# Data as given in article PMC7617797, “The phosphorylated trimeric SOSS1 complex and RNA polymerase II trigger liquid-liquid phase separation at double-strand breaks”.
# B1: 61-mer ssDNA (ssDNA)
# DNA: GACGCTGCCGAATTCTACCAGTGCCTTGCTAGGACATCTTTGCCCACCTGCAGGTTCACCC
# B2: R-loop (mixed)
# DNA 1: B1 DNA
# DNA 2: GGGTGAACCTGCAGGTGGGCGGCTGCTCATCGTAGGTTAGTTGGTAGAATTCGGCAGCGTC
# RNA: AAAGAUGUCCUAGCAAGGCAC
# Assays:
# hSSB1 Y102A/Y115A = hSSB1 Y102A/Y115A (Homo sapiens, UniProt Q9BQ15 1-211, Y102A;Y115A); assay: EMSA; EMSA: 25 mM Tris-HCl pH 7.5, 1 mM DTT, 5 mM MgCl2, 100 mM NaCl, 20 min at 37 C; 10 nM substrate; protein 22-167 nM (RPA 5-40 nM); 7.5% native PAGE, 0.5x TBE, 4; conditions: protein: recombinant
# hSSB1 Y102A = hSSB1 Y102A (Homo sapiens, UniProt Q9BQ15 1-211, Y102A); assay: as above; conditions: protein: recombinant
# hSSB1 Y115A = hSSB1 Y115A (Homo sapiens, UniProt Q9BQ15 1-211, Y115A); assay: as above; conditions: protein: recombinant
# hSSB1;INTS3;c9orf80 [1] = target: T1, hSSB1;INTS3;c9orf80 (Homo sapiens;Homo sapiens?;Homo sapiens?, UniProt Q9BQ15;Q68E01;Q9NRY2 1-211;1-1043;1-104, ||); assay: competition EMSA; substrate pre-coated with RPA (10 or 30 nM); EMSA: 25 mM Tris-HCl pH 7.5, 1 mM DTT, 5 mM MgCl2, 100 mM NaCl, 20 min at 37 C; 10 nM substrate; protein 22-167 nM (RPA 5-40 nM); 7.5% native PAGE, 0.5x TBE, 4; conditions: protein: recombinant;recombinant;recombinant; tags: His6 (2BT);His6-TEV (438B);His6-TEV (438B); copies: 1;1;1; label: 5' Cy3 on strand 1; 21-nt RNA paired to strand 1 in a 21-nt bubble; 20-bp flanking duplexes
# hSSB1;INTS3;c9orf80 [2] = target: T1, hSSB1;INTS3;c9orf80; assay: EMSA; EMSA: 25 mM Tris-HCl pH 7.5, 1 mM DTT, 5 mM MgCl2, 100 mM NaCl, 20 min at 37 C; 10 nM substrate; protein 22-167 nM (RPA 5-40 nM); 7.5% native PAGE, 0.5x TBE, 4; conditions: protein: recombinant;recombinant;recombinant; tags: His6 (2BT);His6-TEV (438B);His6-TEV (438B); copies: 1;1;1; label: 5' Cy3; single strand
# [3] = label: 5' Cy3 on strand 1, 21-nt RNA paired to strand 1 in a 21-nt bubble, 20-bp flanking duplexes
# T1 sequence (Q9BQ15 whole entry, chain 1 of 3): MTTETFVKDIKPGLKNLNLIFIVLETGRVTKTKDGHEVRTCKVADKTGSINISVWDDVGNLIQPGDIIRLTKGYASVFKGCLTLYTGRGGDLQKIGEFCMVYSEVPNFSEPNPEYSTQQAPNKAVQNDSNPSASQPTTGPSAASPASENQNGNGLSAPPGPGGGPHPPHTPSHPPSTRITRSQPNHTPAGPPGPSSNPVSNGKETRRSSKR
# T1 sequence (Q68E01 whole entry, chain 2 of 3): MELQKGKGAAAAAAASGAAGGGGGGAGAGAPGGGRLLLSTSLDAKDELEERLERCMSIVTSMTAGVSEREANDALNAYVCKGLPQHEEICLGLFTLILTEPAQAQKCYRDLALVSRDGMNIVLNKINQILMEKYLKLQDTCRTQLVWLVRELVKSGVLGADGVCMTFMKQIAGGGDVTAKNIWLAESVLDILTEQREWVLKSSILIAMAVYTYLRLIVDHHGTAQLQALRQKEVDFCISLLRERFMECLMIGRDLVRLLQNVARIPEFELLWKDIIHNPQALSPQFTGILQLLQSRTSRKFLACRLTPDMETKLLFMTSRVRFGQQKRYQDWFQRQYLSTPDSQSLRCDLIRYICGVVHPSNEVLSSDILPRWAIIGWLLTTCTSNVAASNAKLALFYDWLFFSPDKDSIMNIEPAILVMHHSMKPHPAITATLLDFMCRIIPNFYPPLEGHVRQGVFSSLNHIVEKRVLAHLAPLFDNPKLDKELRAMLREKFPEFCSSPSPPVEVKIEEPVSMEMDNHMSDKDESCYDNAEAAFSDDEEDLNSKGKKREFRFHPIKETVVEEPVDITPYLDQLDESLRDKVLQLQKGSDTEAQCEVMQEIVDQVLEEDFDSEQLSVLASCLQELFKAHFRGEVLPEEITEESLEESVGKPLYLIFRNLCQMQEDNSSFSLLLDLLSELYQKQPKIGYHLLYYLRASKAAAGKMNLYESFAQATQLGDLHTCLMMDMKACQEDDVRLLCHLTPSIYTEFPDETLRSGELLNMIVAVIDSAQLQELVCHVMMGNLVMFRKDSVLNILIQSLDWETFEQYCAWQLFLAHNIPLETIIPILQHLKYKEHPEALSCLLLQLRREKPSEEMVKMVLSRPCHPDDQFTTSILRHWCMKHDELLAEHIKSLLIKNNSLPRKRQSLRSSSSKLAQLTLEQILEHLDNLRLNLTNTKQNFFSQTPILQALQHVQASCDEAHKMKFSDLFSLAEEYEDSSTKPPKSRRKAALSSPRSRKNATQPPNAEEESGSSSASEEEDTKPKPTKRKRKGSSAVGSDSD
# T1 sequence (Q9NRY2 whole entry, chain 3 of 3): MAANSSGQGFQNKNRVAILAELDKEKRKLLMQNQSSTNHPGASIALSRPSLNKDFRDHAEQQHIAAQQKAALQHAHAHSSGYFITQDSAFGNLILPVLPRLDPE
# hSSB1 Y102A/Y115A, sequence (Q9BQ15 whole entry Y102A/Y115A): as the sequence (Q9BQ15 whole entry, chain 1 of 3) above, with Y102A, Y115A counted along it
# hSSB1 Y102A, sequence (Q9BQ15 whole entry Y102A): as the sequence (Q9BQ15 whole entry, chain 1 of 3) above, with Y102A counted along it
# hSSB1 Y115A, sequence (Q9BQ15 whole entry Y115A): as the sequence (Q9BQ15 whole entry, chain 1 of 3) above, with Y115A counted along it
binder,measurement,setting,value
B1,binding result,"hSSB1 Y102A/Y115A; label: 5' Cy3, single strand",binds
same,binding result,"hSSB1 Y102A; label: 5' Cy3, single strand",binds
same,binding result,"hSSB1 Y115A; label: 5' Cy3, single strand",binds
B2,binding result,hSSB1 Y102A/Y115A; [3],binds
same,binding result,hSSB1 Y102A; [3],binds
same,binding result,hSSB1 Y115A; [3],binds
same,binding result,hSSB1;INTS3;c9orf80 [1],binds
GTGCCTTGCTAGGACATCTTT (ssDNA) [21-mer ssDNA (pRMS630)],binding result,hSSB1;INTS3;c9orf80 [2],no binding
